Assay results reported in PMC4177747, “Derlin-1 Regulates Mutant VCP-Linked Pathogenesis and Endoplasmic Reticulum Stress-Induced Apoptosis” (PLoS Genetics, 2014).

Biological target: T1, TER94 (endogenous, the fly VCP homolog) (Drosophila (endogenous in flies), UniProt Q7KN62 1-801)
T1 construct: TER94, the Drosophila homolog of VCP, endogenous, detected with anti-VCP; also called TER94^WT; source: endogenous, whole fly lysate
Experiment: co-IP; anti-VCP on protein A-agarose; lysates of wild-type flies untreated or kept at 0°C for two hours and recovered for four hours at 25°C; blot with anti-VCP and anti-Derlin-1
Conditions: partners not purified

T1 sequence (Q7KN62 whole entry): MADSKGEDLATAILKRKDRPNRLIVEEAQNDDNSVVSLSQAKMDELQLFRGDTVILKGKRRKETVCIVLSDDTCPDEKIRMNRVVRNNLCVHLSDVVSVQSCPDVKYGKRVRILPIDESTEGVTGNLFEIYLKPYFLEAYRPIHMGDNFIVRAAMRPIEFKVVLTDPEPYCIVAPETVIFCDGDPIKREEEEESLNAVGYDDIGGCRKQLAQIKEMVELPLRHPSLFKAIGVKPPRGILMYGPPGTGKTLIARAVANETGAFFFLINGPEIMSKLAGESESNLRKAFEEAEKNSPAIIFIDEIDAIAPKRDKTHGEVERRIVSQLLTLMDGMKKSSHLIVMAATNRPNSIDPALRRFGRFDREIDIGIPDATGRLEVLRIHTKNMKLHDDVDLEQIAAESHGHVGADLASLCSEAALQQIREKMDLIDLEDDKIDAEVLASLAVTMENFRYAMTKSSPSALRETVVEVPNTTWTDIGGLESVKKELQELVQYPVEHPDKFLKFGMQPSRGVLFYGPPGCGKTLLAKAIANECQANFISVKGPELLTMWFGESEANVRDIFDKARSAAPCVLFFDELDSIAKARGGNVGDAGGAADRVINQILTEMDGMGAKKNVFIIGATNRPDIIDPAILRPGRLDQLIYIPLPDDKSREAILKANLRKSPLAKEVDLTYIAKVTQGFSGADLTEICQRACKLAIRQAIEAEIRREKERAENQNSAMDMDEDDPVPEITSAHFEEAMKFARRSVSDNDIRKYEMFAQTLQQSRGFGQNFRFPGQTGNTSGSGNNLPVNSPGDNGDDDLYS

B1: Derlin-1 (endogenous, fly) (natural protein, Drosophila (endogenous in flies), UniProt Q9VQ57 1-245, looked up)
chain: MDAGVWYRSLPRFTRYWLTATVVLSMLCRFDVIPLHWLHLDRSAVFSKLQLWRCMTSLFVFPISSNTAFHFLINCFFIVQYSSKLEKDQYSRSPADYLYLLIVSAVLANIGGMIFNVYFLMDTLVLAITYIWCQLNKDVTVSFWFGTRFKAMYLPWVLAAFEFIFHFSLASLVGIFVGHVYYFFKFQYSQDLGGTPLLETPQFLKRLVPDVSGGFGGFGLPPESRAPPRQATESPWGRGMTLGRN
notes: Derlin-1, Drosophila, endogenous protein of about 27 kD (predicted 28.25 kD); also called endogenous Derlin-1; source: endogenous, whole fly lysate
  fold increase of the level of Derlin-1/TER94 complexes after cold treatment against untreated (normalised to TER94): 4.9 ± 0.98 fold
